Series [1] relates to BALB/c mice with adenocarcinoma breast cancer. The experiment in a line: in vivo. The settings on record: mouse, iv. Here is the method:
(§1) A few BALB/c mice that previously injected with spontaneous Murine Mammary Adenocarcinoma Cells (MMAC) which has been histopathologically approved for invasive ductal carcinoma, grade II/III, ([18]) were provided from Pasteur Institute, Tehran, Iran. These mice breast tumor model were used for development of the tumor allograft in other healthy Balb/c mice. For this purpose, the tumor allograft development was performed according to the previously reported procedure ([19]). Adenocarcinoma breast tumors of the mice were brought out and divided to 2–3 mm^3 segments. These segments were implanted percutaneously in the right side of the flank of inbred female BALB/c mice (16–25 g, 6–8 weeks old, Pasteur Institute, Tehran, Iran). 24-31 days post implantation, the tumor volume reached 70–80 mm^3. 100 μL of the radiolabeled complex with approximately 5.55 MBq radioactivity was injected intravenously into the BALB/c mice with adenocarcinoma breast cancer through their tail vein. The total amount of radioactivity injected into each animal was measured by counting the 1-mL syringe before and after injection in a dose calibrator with the fixed geometry. Biodistribution of the complex among tissues was determined by sacrificing the BALB/c mice at each selected time (15, 30 and 60 m) after injection using the animal care protocols. Blood samples were rapidly taken after scarification. The tissues (heart, kidneys, spleen, stomach, intestine, lung, liver, skin, bone, muscle, adrenal, pancreas and tumor) were weighed and rinsed with normal saline and their activities were determined with a p-type coaxial HPGe detector coupled with a multichannel analyzer. The percentage of injected dose per gram (%ID/g) for different organs was calculated by dividing the activity amount of each tissue (A) to the decay-corrected injected activity and the mass of each organ. Four […] were considered for each time interval. All values were expressed as mean ± standard deviation (Mean±SD) and the data were compared using Student’s T-test. P values of < 0.05 were considered statistically significant.

Series [2] in a line: in vivo. More on the design: species or system BALB/c mice. The following applies: female, BALB/c, mouse, iv, 5.55 MBq, total radioactivity. On the procedure: as §1
Series [3] is described as follows: in vivo. The arrangement: species or system BALB/c mice. The settings on record: female, BALB/c, mouse, iv, 5.55 MBq, total radioactivity. Here is the method:
A few BALB/c mice that previously injected with spontaneous Murine Mammary Adenocarcinoma Cells (MMAC) which has been histopathologically approved for invasive ductal carcinoma, grade II/III, ([18]) were provided from Pasteur Institute, Tehran, Iran. These mice breast tumor model were used for development of the tumor allograft in other healthy Balb/c mice. For this purpose, the tumor allograft development was performed according to the previously reported procedure ([19]). Adenocarcinoma breast tumors of the mice were brought out and divided to 2–3 mm^3 segments. These segments were implanted percutaneously in the right side of the flank of inbred female BALB/c mice (16–25 g, 6–8 weeks old, Pasteur Institute, Tehran, Iran). 24-31 days post implantation, the tumor volume reached 70–80 mm^3. 5.55 MBq of final ^68Ga-DOTATOC solution was injected intravenously into the mice through their tail veins. Static PET images were captured for 10 min with three sets of emission images starting 30, 60 and 120 min post injection. In addition, PET emission scans were preceded by CT scans performed for anatomical reference and attenuation correction (spatial resolution 1.25 mm, 80 kV, 150 mAs) with a total CT scanning time of 20 s. Reconstruction was performed using the iterative algorithm with attenuation correction. The reconstruction settings were 4 iterations and 21 subsets to a 256×256 matrix, with a post-filtering of 2 mm. Transmission data were reconstructed within a matrix of equal size by means of filtered back-projection, yielding a co-registered image set. The reconstructed emission images were reformatted into coronal, sagittal and maximum intensity projection (MIP) image sets. Maximum, average and minimum standardized uptake values (SUV) for the observable organs in the images were calculated based on the region of interest (ROI) and according to Eq. 1: where C is the tissue radioactivity concentration (kBq/mL), I is the decay-corrected amount of injected radiolabeled complex [kBq], and w is the weight (g).
The source holds these as a separate data set.

As for `C[C@@H](O)[C@@H]1NC(=O)[C@H](CCCCN)NC(=O)[C@@H](Cc2c[nH]c3ccccc23)NC(=O)[C@H](Cc2ccc(O)cc2)NC(=O)[C@@H](NC(=O)[C@@H](Cc2ccccc2)NC(=O)CN2CCN(CC(=O)O)CCN(CC(=O)O)CCN(CC(=O)O)CC2)CSSC[C@@H](C(=O)N[C@H](CO)[C@@H](C)O)NC1=O` [^68Ga-DOTATOC, metal not drawn], the “blood clearance (in words)” value in series [1] is recorded as “fast blood clearance”. Also, in “in vivo [2]” (Tumor/blood ratio), the tissue to tissue ratio at 0.25 h is 2.38, the tissue to tissue ratio at 0.5 h amounted to 3.37 and the tissue to tissue ratio at 1 h worked out at 9.92. In “in vivo [2]” (Tumor/muscle ratio), the tissue to tissue ratio at 0.25 h turned out to be 18.7, the tissue to tissue ratio at 0.5 h is 20.8 and the tissue to tissue ratio at 1 h came out at 19.8. In “in vivo [3]”, the SUV at 0.5 h was 0.66 SUV, the SUV at 1 h was 0.28 SUV and the SUV at 2 h came out at 0.18 SUV.

The values above are taken from PMC5765332, “Evaluation of the Possible Utilization of ^68Ga-DOTATOC in Diagnosis of Adenocarcinoma Breast Cancer” (Asia Oceania Journal of Nuclear Medicine and Biology, 2018).
